Consider one substance from article PMC3154745.

In this test the target is Full length mammalian HP1β (human or mouse (sequences identical)) (UniProt P83916). Briefly: AUC.

Full length mammalian HP1β, P83916 1-185 (natural protein; other documents disagree on this pair), sequence (P83916 whole entry): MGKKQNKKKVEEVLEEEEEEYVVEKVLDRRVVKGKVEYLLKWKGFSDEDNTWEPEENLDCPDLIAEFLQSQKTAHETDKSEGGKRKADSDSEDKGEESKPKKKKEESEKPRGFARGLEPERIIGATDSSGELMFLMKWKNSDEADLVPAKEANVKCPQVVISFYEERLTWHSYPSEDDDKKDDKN

Regarding “Full length mammalian HP1β, P83916 1-185 (natural protein; other documents disagree on this pair)”, the Kd was 500 nM.
